# In IntAct's records for PubMed 22609948:
# B1: Segment polarity protein dishevelled homolog DVL-2 (Mus musculus), Q60838 (parent)
# chain: MAGSSAGGGGVGETKVIYHLDEEETPYLVKIPVPAERITLGDFKSVLQRPAGAKYFFKSMDQDFGVVKEEISDDNARLPCFNGRVVSWLVSSDTPQPEVAPPAHESRTELVPPPPPLPPLPPERTSGIGDSRPPSFHPNVSSSHENLEPETETESVVSLRRDRPRRRDSSEHGAGGHRPGGPSRLERHLAGYESSSTLMTSELESTSLGDSDEDDTMSRFSSSTEQSSASRLLKRHRRRRKQRPPRMERTSSFSSVTDSTMSLNIITVTLNMEKYNFLGISIVGQSNERGDGGIYIGSIMKGGAVAADGRIEPGDMLLQVNDMNFENMSNDDAVRVLRDIVHKPGPIVLTVAKCWDPSPQAYFTLPRNEPIQPIDPAAWVSHSAALTGAFPAYPGSSSMSTITSGSSLPDGCEGRGLSVHMDMASVTKAMAAPESGLEVRDRMWLKITIPNAFLGSDVVDWLYHHVEGFPERREARKYASGLLKAGLIRHTVNKITFSEQCYYVFGDLSGGCESYLVNLSLNDNDGSSGASDQDTLAPLPGATPWPLLPTFSYQYPAPHPYSPQPPPYHELSSYTYGGGSASSQHSEGSRSSGSTRSDGGAGRTGRPEERAPESKSGSGSESELSSRGGSLRRGGEPGGTGDGGPPPSRGSTGAPPNLRALPGLHPYGAPSGMALPYNPMMVVMMPPPPPPVSTAVQPPGAPPVRDLGSVPPELTASRQSFHMAMGNPSEFFVDVM
# Variants of: B1
# Settings: with plk1_human PLK1, P53350
# plk1_human PLK1, P53350, sequence (P53350 whole entry): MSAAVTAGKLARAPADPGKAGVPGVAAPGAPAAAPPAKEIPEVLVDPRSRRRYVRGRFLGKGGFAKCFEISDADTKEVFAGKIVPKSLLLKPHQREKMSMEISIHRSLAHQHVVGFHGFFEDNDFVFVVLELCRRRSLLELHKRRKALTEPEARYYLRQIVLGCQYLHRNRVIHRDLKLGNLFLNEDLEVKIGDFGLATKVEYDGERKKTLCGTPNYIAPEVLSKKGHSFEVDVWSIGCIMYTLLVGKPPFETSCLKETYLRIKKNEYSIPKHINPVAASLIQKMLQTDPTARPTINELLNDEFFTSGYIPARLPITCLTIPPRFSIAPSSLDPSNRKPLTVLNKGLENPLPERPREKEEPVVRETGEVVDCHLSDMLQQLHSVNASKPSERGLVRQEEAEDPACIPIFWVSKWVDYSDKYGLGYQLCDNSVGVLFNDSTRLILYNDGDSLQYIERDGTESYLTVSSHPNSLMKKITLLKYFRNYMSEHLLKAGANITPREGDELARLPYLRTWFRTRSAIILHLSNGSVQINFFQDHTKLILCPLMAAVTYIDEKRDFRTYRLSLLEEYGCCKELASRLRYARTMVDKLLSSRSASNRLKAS
row,effect of a mutation on the interaction,Variant
1,decreasing interaction,T224A

# Variants of: B1
# Settings: with plk1_human PLK1, P53350
# Remark: another data set of the same source
row,effect of a mutation on the interaction,Variant
1,disrupting interaction,T224D

# Variants of: B1
# Settings: with plk1_human PLK1, P53350
# Remark: another data set of the same source
row,effect of a mutation on the interaction,Variant
1,decreasing interaction,T224E

# Variants of: B1
# Settings: with plk1_human PLK1, P53350
# Remark: another data set of the same source
row,effect of a mutation on the interaction,Variant
1,disrupting interaction,S143A

# Variants of: B1
# Settings: with plk1_human PLK1, P53350
# Remark: another data set of the same source
row,effect of a mutation on the interaction,Variant
1,disrupting interaction,S143D

# Variants of: B1
# Settings: with plk1_human PLK1, P53350
# Remark: another data set of the same source
row,effect of a mutation on the interaction,Variant
1,decreasing interaction,S398A
